Laboratory results: patent publication US20150299314A1 (TORAY INDUSTRIES, published 2015)

T1: CAPRIN-1 protein expressed on the cell surface of human cancer cells (human, UniProt Q14444 2-709)
T1 construct: whole, on cells; Target of all flow cytometry and ADCC assays; the cell line is named under assay; also called human CAPRIN-1; cytoplasmic- and proliferation-associated protein 1
T1 sequence (looked up): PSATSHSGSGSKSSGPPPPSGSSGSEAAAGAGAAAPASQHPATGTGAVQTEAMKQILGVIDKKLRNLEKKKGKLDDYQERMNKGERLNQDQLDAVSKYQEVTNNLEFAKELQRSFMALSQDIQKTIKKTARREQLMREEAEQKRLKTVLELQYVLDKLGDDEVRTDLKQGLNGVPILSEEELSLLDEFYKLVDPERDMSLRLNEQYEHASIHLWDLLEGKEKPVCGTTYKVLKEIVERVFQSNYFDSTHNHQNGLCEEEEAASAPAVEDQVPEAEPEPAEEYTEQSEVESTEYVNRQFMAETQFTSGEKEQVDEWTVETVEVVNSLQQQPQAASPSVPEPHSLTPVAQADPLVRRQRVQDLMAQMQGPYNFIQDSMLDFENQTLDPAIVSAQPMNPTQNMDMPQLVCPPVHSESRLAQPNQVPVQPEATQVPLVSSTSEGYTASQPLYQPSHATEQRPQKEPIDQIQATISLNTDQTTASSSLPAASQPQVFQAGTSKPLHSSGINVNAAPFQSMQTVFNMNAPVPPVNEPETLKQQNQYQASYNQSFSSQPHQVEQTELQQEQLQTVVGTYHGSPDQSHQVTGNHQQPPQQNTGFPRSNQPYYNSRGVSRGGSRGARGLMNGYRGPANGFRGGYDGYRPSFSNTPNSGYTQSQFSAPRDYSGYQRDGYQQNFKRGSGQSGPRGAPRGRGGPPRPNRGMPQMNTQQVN

T2: polypeptide set forth in SEQ ID NO: 430 (human)
T2 peptide: ATQVPLVSSTSEGYTA

T3: human CAPRIN-1 recombinant protein (human, UniProt Q14444 1-709)
T3 construct: also called CAPRIN-1 protein; antigen protein (human CAPRIN-1 protein)
T3 sequence: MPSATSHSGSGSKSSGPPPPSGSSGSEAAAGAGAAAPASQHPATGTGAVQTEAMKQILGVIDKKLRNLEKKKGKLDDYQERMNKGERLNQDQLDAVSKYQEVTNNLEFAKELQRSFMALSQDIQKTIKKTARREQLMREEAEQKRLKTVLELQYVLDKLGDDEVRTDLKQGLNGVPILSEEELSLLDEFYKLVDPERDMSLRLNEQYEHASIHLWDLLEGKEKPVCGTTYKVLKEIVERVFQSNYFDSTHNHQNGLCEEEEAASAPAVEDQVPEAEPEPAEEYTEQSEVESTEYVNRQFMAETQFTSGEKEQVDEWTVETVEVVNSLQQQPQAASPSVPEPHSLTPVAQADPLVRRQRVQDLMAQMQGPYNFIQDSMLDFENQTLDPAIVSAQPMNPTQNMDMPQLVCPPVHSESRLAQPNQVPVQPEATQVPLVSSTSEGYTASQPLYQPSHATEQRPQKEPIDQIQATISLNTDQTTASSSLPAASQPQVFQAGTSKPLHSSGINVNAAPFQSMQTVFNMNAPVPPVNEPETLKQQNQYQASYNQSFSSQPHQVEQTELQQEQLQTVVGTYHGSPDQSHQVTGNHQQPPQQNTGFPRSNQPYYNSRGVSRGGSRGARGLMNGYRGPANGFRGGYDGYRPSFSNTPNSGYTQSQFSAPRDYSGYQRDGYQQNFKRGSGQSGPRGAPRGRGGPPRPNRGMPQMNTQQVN


Key:
[1] = target: T1, CAPRIN-1 protein expressed on the cell …; experiment: flow cytometry, TGBC14TKB cells, antibody 20 ug/mL, secondary antibody only as control
Protocol: (§1) A human gallbladder cancer cell line TGBC14TKB was investigated whether or not a CAPRIN-1 protein is expressed on the cell surface. 5×10⁵ cells of the gallbladder cancer cell line were centrifuged with a 1.5-mL micro centrifugation tube. The cells were subjected to reaction with each mouse anti-CAPRIN-1 antibody at a final concentration of 20 μg/mL, followed by being left to stand on ice for 1 hour. After washing with PBS, the cells were reacted with a 100-fold diluted Alexa488-labeled goat anti-mouse IgG antibody (manufactured by life technologies), followed by being left to stand on ice for […]. After washing with PBS, the fluorescence intensity was measured with FACS Calibur available from Becton, Dickinson and Company. As a negative control, only the secondary antibody was used in the reaction.
as §1, with “cell surface using mouse anti-CAPRIN-1 monoclonal antibodies #30 to #36.” for “cell surface.”, “of TGBC14TKB” for “of the gallbladder cancer cell line”, “each of” for “each”, “anti-CAPRIN-1 antibodies #30 to #36” for “anti-CAPRIN-1 antibody”, “Company. Separately, the cells were subjected to reaction with” for “Company. As a negative control,”, “antibody as a negative control.” for “antibody was used in the reaction.”

[2] = target: T2, polypeptide set forth in SEQ ID NO: 430; experiment: reactivity with the epitope peptide, method not detailed
[3] = target: T3, human CAPRIN-1 recombinant protein; experiment: reactivity with CAPRIN-1 protein, method not detailed
[4] = target: T1, CAPRIN-1 protein expressed on the cell …; experiment: reactivity with gallbladder cancer cell lines, method not detailed
[5] = target: T1, CAPRIN-1 protein expressed on the cell …; experiment: flow cytometry, TGBC14TKB cells, culture supernatant, isotype control antibody as control
Protocol: Subsequently, a gallbladder cell line TGBC14TKB, which was confirmed to express a CAPRIN-1 gene, was investigated for whether or not a CAPRIN-1 protein is expressed on the surfaces of these cells. 1×10⁶ cells of TGBC14TKB were centrifuged with a 1.5-mL micro centrifugation tube. To the cells was added the culture supernatant (100 μL) containing any of anti-CAPRIN-1 mouse monoclonal antibodies #1 to #22 reacting to cancer cell surface produced in Example 4 and anti-CAPRIN-1 mouse-chicken chimeric antibodies #1 to #3 produced in the above (2), followed by being left to stand on ice for 1 hour. After washing with PBS, the cells were suspended in a FITC-labeled goat anti-mouse IgG antibody (manufactured by life technologies) diluted by 500-fold with PBS containing 0.1% FBS, followed by being left to stand on ice for 1 hour. After washing with PBS, the fluorescence intensity was measured with FACS Calibur available from Becton, Dickinson and Company. Separately, as a control, the same procedure as in above was performed using an iso-type control antibody, instead of the culture supernatants containing the anti-CAPRIN-1 mouse monoclonal antibodies #1 to #22 and the mouse-chicken chimeric antibodies #1 to #3. As a result, the fluorescence intensity in the cells to which any of the monoclonal antibodies #1 to #22 and the mouse-chicken chimeric antibodies #1 to #3 was added was 20% or more higher than that in the control in every case. Specifically, in the case of using mouse-chicken chimeric antibody #1, the fluorescence intensity was enhanced by 200% or more. […] The rate of increase in the fluorescence intensity is represented by the rate of increase in the mean fluorescence intensity (MFI value) in each cell and is calculated by the following calculation formula: […]

[6] = target: T1, CAPRIN-1 protein expressed on the cell …; experiment: cell-based or functional assay

increase in fluorescence intensity over control [1] [%] | binding result [2] | binding result [3] | binding result [4] | rate of increase in mean fluorescence intensity over control [5] [%] | Binder | cytotoxicity (ADCC, 51Cr release) on TGBC14TKB, human NK cells [6] [%]
≥ 35 |  |  |  |  | mouse anti-CAPRIN-1 antibody #33 (antibody) chain 1: GPGLVKPSQSLSLTCSVTGYSITSGYYWNWIRQFPGNKLEWMGYISYDGSNNYNPSLKNRISITRDTSKNQFFLKLNSVTTEDTATYYCATGMAWFAYW chain 2: not shown | 
 | binds | binds | binds |  | humanized anti-CAPRIN-1 antibody #2 (antibody, human IgG1, V domains shown) VH: EVQLVESGGGLVQPGGSLRLSCAASGFSFSGSYYMSWVRQAPGKGLEWIAYIYIGDGVTAYANWAKGRFTISKDNSKNTLYLQMNSLRAEDTAVYFCARGNKLWGPGTLVTVSS VL: DIQMTQSPSSLSASVGDRVTIKCQASQSISSYLAWYQQKPGKAPKRLIYDASNLDSGVPSRFSGSGSGTDFTFTISSLQPEDIATYYCQCTAVSSATIYGNAFGGGTKVEIK | 
 | binds | binds | binds |  | humanized anti-CAPRIN-1 antibody #1 (antibody, human IgG1, V domains shown) VH: QVQLVESGGGLVKPGGSLRLSCAASGFSFSGSYYMSWVRQAPGKGLEWIAYIYIGDGVTAYANWAKGRFTISRDNAKNSLYLQMNSLRAEDTAVYFCARGNRLWGQGTLVTVSS VL: DIQMTQSPSSLSAAVGDRVTIKCQASQSISSYLAWYQQKPGKPPKRLIYDASNLDSGVPSRFSGSGSGTDFTFTISSLQPEDIATYYCQCTAVSSATIYGNAFGGGTKVEIK | 
 | binds | binds | binds |  | humanized anti-CAPRIN-1 antibody #3 (antibody, human IgG1, V domains shown) VH: EVQLVESGGGLVQPGGSLRLSCAASGFSFSGSYYMSWVRQAPGKGLEWIAYIYIGDGVTAYANWAKGRFTISRDNSKNTLYLQMNSLRAEDTAVYYCARGNKLWGPGTLVTVSS VL: DIQMTQSPSSLSASVGDRVTIKCQASQSISSYLAWYQQKPGKAPKRLIYDASNLDSGVPSRFSGSGSGTDFTFTISSLQPEDIATYYCQCTAVSSATIYGNAFGGGTKVEIK | 
 |  |  |  | ≥ 20 | mouse monoclonal antibody #6 (antibody) chain 1: DAELVKPGASVKISCKASGYTFTDHSIHWVQQKPEQGLEWIGYISPGNGNIKYNEKFKGKATLTADKSSSTAYMQLNSLTSEDSAVYFCKRSLGRGGPYYFDYWGQGTTVTVSS chain 2: DIVLTQAAPSLPVTPGESVSISCRSSKSLLHSNGNTYLYWFLQRPGQSPQLLIYRMSNLASGVPDRFSGSGSGTAFTLRISRVEAEDVGVYYCMQHREYPVTFGSGPN | ≥ 15
 |  |  |  | ≥ 20 | mouse monoclonal antibody #3 (antibody, V domains shown) VH: GGGLVKPGGSLKLSCAASGFTFSSYGMSWVRQTPEKRLEWVATISSGGSYTYYPDSVKGRFTISRDNAKNTLYLQMSSLRSEDTAMYYCASLASYYFDYWGQGTTLTVSS VL: not shown | ≥ 15
≥ 35 |  |  |  |  | mouse anti-CAPRIN-1 antibody #31 (antibody, V domains shown, mouse hybridoma antibody; also called mouse anti-CAPRIN-1 monoclonal antibody #31) VH: GPELVKPGASVKISCKASGYSFTGYFMNWVMQSHGKSLEWIGRINPYNGDTFYNQKFKGKATLTVDKSSSTAHMELRSLASEDSAVYYCARRIHYYYGSSYYAMDYWGQEPHH VL: DVQITQSPSYLAASPGETITINCRASKSISKYLAWYQEKPGKTNKLLIYSGSTLQSGIPSRFSGSGSGTDFTLTISSLEPEDFAMYYCQQHNEYPWTFGGGTKLEIKR | 
 |  |  |  | ≥ 20 | mouse monoclonal antibody #18 (antibody, V domains shown, mouse hybridoma antibody; also called anti-CAPRIN-1 mouse monoclonal antibody #18; anti-CAPRIN-1 monoclonal antibody #18) VH: LQESGAELARPGASVKLSCKASGYTFTSYWMQWVKQRPGQGLEWIGAIYPGDGDTRYTQKFKGKATLTADKSSSTAYMQLSSLASEDSAVYYCARGEYGNYFAYWGQGTTVTVSS VL: TSDASLGERVTITCKASQDINSYLSWFQQKPGKSPKTLIYRANRLVDGVPSRFSGSGSGQDYSLTISSLEYEDMGIYYCLQYDEFPLTFGGGTKLEIKQ | ≥ 15
 |  |  |  | ≥ 20 | mouse monoclonal antibody #14 (antibody, V domains shown, mouse hybridoma antibody; also called anti-CAPRIN-1 mouse monoclonal antibody #14; anti-CAPRIN-1 monoclonal antibody #14) VH: EVQLHQFGAELVKPGASVKISCKASGYTFTDYNMDWVKQSHGKSLEWIGDINPNYDSTSYNQKFKGKATLTVDKSSSTAYMELRSLTSEDTAVYYCARSRSYDYEGFAYWGQGTLVTVSA VL: DIQLTQSPASLSASVGETVTITCRASGNIHNYLAWYQQKQGKSPQLLVYNAKTLADGVPSRFSGSGSGTQYSLKINSLQPEDFGSYYCQHFWSTLTFGGGTKLEIKQ | ≥ 15
 |  |  |  | ≥ 20 | mouse monoclonal antibody #15 (antibody, V domains shown, mouse hybridoma antibody; also called anti-CAPRIN-1 mouse monoclonal antibody #15; anti-CAPRIN-1 monoclonal antibody #15) VH: EVQLHQFGAELVKPGASVKISCKASGYTFTDYNMDWVKQSHGKSLEWIGDINPNYDSTSYNQKFKGKATLTVDKSSSTAYMELRSLTSEDTAVYYCARSRSYDYEGFAYWGQGTLVTVSA VL: SGDRVSLSCRASQSISNYLHWYQQKSHESPRLLIKYASQSISGIPSRFSGSGSGTDFTLSINSVETEDFGMYFCQQSNSWPYTFGAGTKLEIKQ | ≥ 15
